According to the supplement of paper PMC12338614:

B1: library; numbered along this chain (parent)
chain: MEVVDPQQLGMFTEGELMSVGMDTFIHRIDSTEVIYQPRRKRAKLIGKYLMGDLLGEGSYGKVKEVLDSETLCRRAVKILKKKKLRRIPNGEANVKKEIQLLRRLRHKNVIQLVDVLYNEEKQKMYMVMEYCVCGMQEMLDSVPEKRFPVCQAHGYFCQLIDGLEYLHSQGIVHKDIKPGNLLLTTGGTLKISDLGVAEALHPFAADDTCRTSQGSPAFQPPEIANGLDTFSGFKVDIWSAGVTLYNITTGLYPFEGDNIYKLFENIGKGSYAIPGDCGPPLSDLLKGMLEYEPAKRFSIRQIRQHSWFRKKHPPAEAPVPIPPSPDTKDRWRSMTVVPYLEDLHGADEDEDLFDIEDDIIYTQDFTVPGQVPEEEASHNGQRRGLPKAVCMNGTEAAQLSTKSRAEGRAPNPARKACSASSKIRRLSACKQQ

Variants of: B1
Experiment: STK11 functional score (HeLa growth suppression), rescaled enrichment; synonymous median = 1, nonsense median = 0 (normalised score)
Details: with HeLa; variant type: missense
Protocol: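 Deep mutational scan (TileSeq/POPCode codon randomisation) of full-length codon-optimised STK11 cDNA integrated at a Bxb1 landing pad (AAVS1) in HeLa cells. Restoring functional STK11 suppresses HeLa proliferation. Variant frequencies were measured by NGS before and after about two weeks of growth. The error-corrected enrichment log-ratio was rescaled so that synonymous median = 1 and nonsense median = 0, scores above 1 were compressed, and codon-level and three biological replicate scores were combined; error is the bootstrapped standard error. Scale: synonymous median = 1, nonsense median = 0; below 0.5 = damaging.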

STK11 functional score, by site and new letter:
N119: W 1.58, T 1.42, D 0.736, K 1.18, R 1.26, I 1.51, A 1.44, M 0.408, L 1.17, G 0.965, Y 1.12, H 1.3, E 0.994, F 1.16, P 1.37, V 0.707, S 0.694
E120: P 1.42, C 0.373, H 1.66, N 1.68, V 1.09, Y 0.964, A 0.817, M 1.11, R 0.779, Q 1.16, T 1.43, S 1.42, G 1.26, F 1.52, I 1.55, W 0.626, L 1.38
C132: V 0.601, P -0.178, H 1.16, S 0.556, I 1.32, N 1.23, T 1.52, M 1.35, Y 0.597, L 0.813, K 1.25, F 0.255, A 1.47, R -0.197, Q 1.58, E 1.06, G 0.44, W -0.606
Y126: P -0.144, R 0.256, S 0.6, G 0.669, T -0.0466, L 0.421, C 0.357, W 0.105, H 0.681, M 0.654, F 0.719, A 1.21, V 0.762
M136: D -0.0676, H -0.214, Y -0.238, L 0.989, G -0.14, K 0.279, P -0.132, A 0.691, W -0.224, R -0.124, E 0.000415, N -0.15, Q 0.0397, S 0.0685
Q137: D 0.482, E 0.452, H 0.922, G 0.734, A 1.02
V116: S 0.887, W 0.541, P 0.975, C 0.415, N 0.962, R 0.888, G 0.415, H 1.18, I 0.327, L 1.14, E 1.52, A 0.197
G135: S 1.65, K 1.63, Y 1.32, L 1.52, T 1.66, Q 1.57, N 1.7, W 0.571, R 1.38, E 1.45, A 1.56, V 1.29, C 1.54, P 1.7, H 1.63, I 1.69, D 1.06, F 1.09
V133: P 1.53, E 0.588, D 1.53, W 0.452, R 0.519, H 1.47, Y 1.55, I 1.24, L 0.982, N 1.17, S 1.06, G 1.14, T 1, A 1.41, C 1.35
M125: I 1.11, P 0.267, G 1.03, V 0.78, W 1.25, Q 1.68, S 0.769, H 0.857, A 1.14, R 0.355, L 1, Y 1.31, K 1.04, D 0.704
E130: F 0.993, G 0.45, T 1.33, L 0.308, K 1.36, P 0.365, I 0.376, R 0.369, Y 0.104, S 1.4, V 0.458, W -0.0647, C 0.373, Q 0.94, M 0.0424
E121: D 0.812, A 0.765, S 1.17, K 0.738, V 1.41, Q 1.08, Y 1.36, M 0.84, L 1.43, F 0.824, I 1.42, P 1.66, R 1.31, W 0.251, N 1.57, G 1.18, T 1.13
K122: R 1.69, V 0.86, E 0.911, T 1.61, Q 0.235, C 1.46, A 1.18, F 1.25, P 1.68, D 1.52, M 1.25, L 1.43, W 1.4, N 1.51, H 1.68, S 1.65
Y131: I 1.2, Q -0.0871, W 0.739, M -0.137, S 1.18, L 1.36, E 0.174, R 0.218, D 0.0798, H 1.2, V 0.785, C 0.51, G 0.769, A 0.676
Y118: G 1.23, H 1.14, R 1.04, E -0.175, V 0.988, K 0.568, N 0.286, L 0.633, T 1.61, Q 1.52, S 0.99, I 1.32, F 0.519, M 1.62, C 0.723, W 0.378, A 0.627, P 1.3
Q123: I 0.581, F 0.854, E 1.15, L 0.679, T 1.27, P 0.451, D 0.981, C 1.35, H 1.11, Y 1.01, R 0.312, G 0.98, W 0.588, M 1.6, K 0.3, S 1.49, A 1.11, V 0.961
L117: F 0.858, V 0.689, A 1.27, G 0.823, R 1.15, T 0.762, P 0.386, S 0.291, N 1.44, E 1.45, H 1.05, K 1.3, Q 1.33, W 1.29, Y 1.55
D115: V 1.27, P 0.396, Y 0.294, N 1.65, R 1.52, S 1.6, W 0.727
K124: G 1.04, Q 1.61, P 0.692, N 1.27, A 1.13, D 0.919, V 1.06, L 0.951, W 0.166, I 1.51, R 1.18, S 0.355, Y 1.25, H 1.3
V128: G 0.233, I 1.63, P -0.00512, Q 1.22, C 1.15, A 0.438, S 0.466, L 0.945, F 1.13, W 0.804, H 0.71, Y 1.41, R 0.15, N 1.28
C134: T 1.61, W 0.131, I 1.42, E 1.45, Q 0.746, G 0.564, L 0.479, Y 1.15, V 0.604, P 1.62, A 1.1, S 1.49, M 0.248, R 1.52, F 0.425
M127: Y 1.24, L 0.382, V 0.95, T 1.32, A 1.5, S 0.857, D 0.289, H 1.63, I 0.605, E 1.59, W 0.627, N 1.63, R 0.302, P 0.82, G 0.516
M129: T 0.97, R 1.13, C 1.26, F 0.993, S 0.731, K 1.35, W 0.743, N 0.571, V 0.303, I 0.692, G 0.986, L 0.635, D 1.37
